Assay results as given in article PMC3116947.
Values joined by “and” are separate entries in the source; they are usually repeats but may differ in a detail not shown here. Identical values can stand only once.

How the values were obtained:
[1] = molecular target: Gab1 G1 peptide (Homo sapiens); assay: ITC
[2] = molecular target: Gab1 G2 peptide (Homo sapiens); assay: ITC

| Kd [1] | Kd [2] [µM] | Binder |
| --- | --- | --- |
| 171 µM | – | Grb2 cSH3, P62993 (protein) QQPTYVQALFDFDPQEDGELGFRRGDFIHVMANSDPNWWKGACHGQTGMFPRNYVTPVNR |
| 200 µM and 152 µM and 50 µM | 42 | Grb2 cSH3, P62993 (protein) QQPTYVQALFDFDPQEDGELGFRRGDFIHVMDNSDPNWWKGACHGQTGMFPRNYVTPVNR |
| 444 µM | 158 | Grb2 cSH3, P62993 (protein) QQPTYVQALFDFDPQADGELGFRRGDFIHVMDNSDPNWWKGACHGQTGMFPRNYVTPVNR |
